Assay results reported in the DeepSol protein solubility set.

Assay: soluble on expression in E. coli; label from the status in PepcDB or PDB records

Row | Sequence | soluble on expression in E. coli
1 | MSLTNKHPSLFSPFMLTEKIKLRNRIVMAPMTTWSANPDGTISEQELEFYKRRSQNVGLVITGCTYVTPSGIGFTHEFAAYDDRFINSLEKLAAAAKSGGAPAILQIFHAGNKAIPELVPNNDVISASASSVKSGDFMKRVVQSREMTENEIQETIRAFGDVTKRAIKAGFDGIELHGAHGFLLQNFFSPLFNQRNDRWGGDLEGRMRFPLAVLQEVKNVVYEYATKPFAIGYRISPEESATGGLRIEDTYKLLDRLISSGISYIHTSLVSINDSYPVESPNGPRTIELILNHIAGRVPVIAAGKIRTPSQAQEAISTGLPLVAIGKGLVINPEWVTLAESGRGHEIQTTLNPQLVPELTIPDKLWDQIQASKGEGHHHHHH | soluble
2 | MGSDKIHHHHHHMLIVREFSNRFQQMSGMPINSNETKERLKAAGIDINSKQYRAVMSEMSRDGGGGYTTISAIKKRMSRYDKDGDWINPRTGLAGLLVTDKNCASKNRIVSISESIMDEMFESTKKEFFMENGVHNGDTTNRSEIYQKLYQQTEKNDRLAAGYTLEEYERQYWQAFTDAVKVADPKWEAGKPIMPGVLDRITSKSIDALLVKSGSQLIRKSFERMI | not soluble
3 | MGSDKIHHHHHHMMSLSNERLIHDPLEWDALVARYGLDCYYEYAYFKLAQEPEAVPEMYVHPSEFGILIYPYLKRRISGTPLQDLTTPYGYGGPVFVGLWSSDQIKDIRRHFLEYCQAERIVSETIRFHPLLENDELGRSWCETTTVLQQTVTVALSEPFEAIESQFSSMTRRNIRKAVREDVTVRVAGQEEYAKFIRLYRLTMDKHQADARYYFTDHYFRQFHDGRLPAELLVAEREGKIIAGCIVLYGQQFAHYHLGASDPAELSARPNHLLFAEMIRRAKALGKTALHLGGGTTRNEDDSLLAYKRSFSNRQTSFTLGTSVLHPLLYRQLSEQHFAHNVLSSQDWFPAYRTPVRQLSPRGEQSS | not soluble
4 | MSLASLIGLAVCTGNAFSPALAAEAKQPNLVIIMADDLGYGDLATYGHQIVKTPNIDRLAQEGVKFTDYYAPAPLSSPSRAGLLTGRMPFRTGIRSWIPSGKDVALGRNELTIANLLKAQGYDTAMMGKLHLNAGGDRTDQPQAQDMGFDYSLANTAGFVTDATLDNAKERPRYGMVYPTGWLRNGQPTPRADKMSGEYVSSEVVNWLDNKKDSKPFFLYVAFTEVHSPLASPKKYLDMYSQYMSAYQKQHPDLFYGDWADKPWRGVGEYYANISYLDAQVGKVLDKIKAMGEEDNTIVIFTSDNGPVTREARKVYELNLAGETDGLRGRKDNLWEGGIRVPAIIKYGKHLPQGMVSDTPVYGLDWMPTLAKMMNFKLPTDRTFDGESLVPVLEQKALKREKPLIFGIDMPFQDDPTDEWAIRDGDWKMIIDRNNKPKYLYNLKSDRYETLNLIGKKPDIEKQMYGKFLKYKTDIDNEGHHHHHH | not soluble
5 | MKLLLLIFVPFVTCGLTCMDFMIDCPRIVYYCDETYVQNQCQFSCGICKQDPGVCGDTYFDCDMYDTKCNSPSFQRQCAGTCGLCPGACEDIWDGCSHFLAPCSDDIKSLCPIKCGLCNSTTTPMILTTITPVDPRCVDAGNQCANYSPPCSDDVKIFCPATCGSCSNGTTGVPLVLTTLTPELTTVTVEPITSTLKPTTTTITPTTTTKLPTTTTKKLPPTTPKPPCKDSSPNCAGWAKNGFCTNTFYPPEKRKEYCGKTCRMC | not soluble
6 | MSGCPFAGNSVGYTLKNVSMEDNEEDRAQTGVNRASKGGLIYGNYLQLEKILNAQELQSEVKGNKIHDEHLFIITHQAYELWFKQILWELDSVREIFQNGHVRDERNMLKVIARMHRVVVIFKLLVQQFSVLETMTALDFNDFREYLSPASGFQSLQFRLLENKIGVLQSLRVPYNRKHYRDNFGGDYNELLLKSEQEQTLLQLVEAWLERTPGLEPNGFNFWGKFEKNILKGLEEEFLRIQAKTDSEEKEEQMAEFRKQKEVLLCLFDEKRHDYLLSKGERRLSYRALQGALMIYFYREEPRFQVPFQLLTSLMDIDTLMTKWRYNHVCMVHRMLGTKAGTGGSSGYHYLRSTVSDRYKVFVDLFNLSTYLVPRHWVPKMNPIIHKFLYTAEYSDSSYFSSDESD | soluble
7 | AQRVKDRPDGDTRRSELTMKLINKRGAVRERKLISYSIDMGKDKKDKKTIMFFLYPGDVKGTGFLTWDYDQIGKDDDKWLYLPAMKKTRRISGASAKKDYFMGSDFTYDDMGSRNVDEDTHKLLGEETFDGHKCWKLESTSKDQRDVFSKKIAWIRQDCLIPVRVEYYDRMNRLHRLLELSDIAQVDGFWMAQKMNMSNVQTGHRTVLEIKKPEFNRPIDESKFTVTSLEK | not soluble
8 | MGSDKIHHHHHHLRRLLNTLYVTTPDSYLAREGENILIRLEEKIVFRIPSHNIEAIVYFGYPGASPSLLGLCAEKGITVSFFSPNGRFLARVEGPQTGNVLLRRKQYRMADEENQVPVLAKYFIAAKILNSRAVLQRGRRDHPDKVGDSIERSIALLAGSVKKVFDSENLNDIRGLEGDAAQRYFSEVDNLILEQKQDFFMAARSRRPPLDNVNALLSFFYTLLVHECRAALESVGLDPAVGFLHRDRPGRPSLALDLMEELRPYLGDRMVLSLINRKQINKDDFITKENGAVYVLPDTRKMLLTVWQKRKQEEIIHPYLEEKIPIGLLPYTQALLLARFLRGDLDAYPAFIWK | not soluble
9 | MHHHHHHSSGVDLGTENLYFQSNAMKKVLIVFGTRPEAIKMAPLVQQLCQDNRFVAKVCVTGQHREMLDQVLELFSITPDFDLNIMEPGQTLNGVTSKILLGMQQVLSSEQPDVVLVHGDTATTFAASLAAYYQQIPVGHVEAGLRTGNIYSPWPEEGNRKLTAALTQYHFAPTDTSRANLLQENYNAENIFVTGNTVIDALLAVREKIHTDMDLQATLESQFPMLDASKKLILVTGHRRESFGGGFERICQALITTAEQHPECQILYPVHLNPNVREPVNKLLKGVSNIVLIEPQQYLPFVYLMDRAHIILTDSGGIQEEAPSLGKPVLVMRETTERPEAVAAGTVKLVGTNQQQICDALSLLLTDPQAYQAMSQAHNPYGDGKACQRIADILAK | soluble
10 | NAIMDLQTRNTRGLSTLVVRDIGELMMAGDMAVIERYVADVRGKGAVLDLRIYDAAGRPAGKKQDAPDGEVQAALTSGATAEKRHKVDGRHVLSFIVPLANEVRCQSCHEQGARFNGAMLLTTSLEEGYAGARN | soluble
11 | MKDNRITVTDIPNTNLKKITLKNDFLEVVLLNYGARLHQLLMPNKNNHWENILLSYDSYQDVLKDQSFFGATVGPVAGRIRNGHWQNGILEQNSDGHHIHGGSKGWSFQYWTVEPFEKKDIIGVAFHLTDTISGYPGPIEATITYQLEDNHLRMISTGRSKQETLFNPTNHAYFNLSGDGKLDILSHLLSLNCQGMLELDDNKLPTGRILPASELSIRFNELTPIETILQRYPTGLDDVFSLVGSDLRQPQLCLQEPTSGRKMTIATTNQSMVLFSTTGFEAPFSINGQAMHSNYGLAIEPQEYPDIVHHPQWGSILLPANKKQTYQTVYQFNLL | not soluble
12 | MNCIIAQSGGPTSVINASVYGLVKANKKLNLYENVYGGLNGIEGILNKKIINLSDLDELQLERFKNSPASGLGSCRYKLKPLSESEDEYLKLLDILNSLNIKAFFYVGGNDSMDTTAKLNAFAKAKNIDIKFFGIPKTIDNDLMHTDHTPGFGSAAKFISTAVLETYLDSKVYTNNGIFIIETMGRDTGWLAASGALATINGNKCADLVYLPERAFSVQSFLTDVARIFKEKKHVYIVASEGLKDENGKFLTETAPNDDSFGHAQLGGVGAYLKNLIIQASITHRVKSLELNTLQRCSMHASSKIDVNEAVMVGQAALEASINSEGGYMVAIRRDSSFPYKSSTFLIEADKIANNIKYFPSEWINEEGNNITEEGLLYLKPLISDFEDRDSLPLYHSFVLLEHHHHHH | not soluble
13 | MGSDKIHHHHHHMSKSITRKIQLTGGSTYIVSLPKEWIKALSLSAGDEVEIYQDTDMKLLIVPKSANTTDQKEIKKIIHCDNVTSEAIIREFIAYYIAGFSSVSITCPRMSSSTRAYIKDVVRRRLLGAEVIEEDVSTISIQFLVDEKELSIKKAISRAFTISYNMLRDSLEAISKADIELAKEISGRDDEVDRFFFYIARQLTISVKAINVLDSEGYNLTQMVDIYSVAKTIERVGDHANRIASLVEDVSKFSNKEDLVNLGLTILESYKSAMNAFLNEKKDIAHSLISNIEIFEKLRELQEIAIKSNDNPKIITSTSMTVESLRRVARYSADIAEATIDILAKSNK | not soluble
14 | MGHHHHHHSHMDELVHDLASALEQTSEQNKLGELWEEMALSPRQQRRQLRKRRGRKRRSDFTHLAEHTCCYSEASESSLDEATKDCREVAPVTNFSDSDDTMVAKRHPALNAIVKSKQHSWHESDSFTENAPCRPLRRRRKVKRVTSEVAASLQQKLKVSDWSYERGCRFKSAKKQRLSRWKENTPWTSSGHGLCESAENRTFLSKTGRKERMECETDEQKQGSDENMSEW | not soluble
15 | MSLSIYKDINIASAKPSLKERKNIKHYALDHLNIDEKNNAPLFKTLLEDAMRVSSKEILLIVGGSSFYLKSILEGLSRMPKLSGEEVVKIEREIATLSNPYIFLKSIDPNMAFKIHPNDTYRTHKALEIFYATCTPPSEYFKANPKKPFEHAISLFALSIEKSALHNNIKRRTKNMLHSGLVEEIKALYTQYPKDSQPFKAIGVKESVLFLEKRLTLKELEEAITSNTMKLAKRQNTFNKTQFNNLYVGSAEEVRHAILKHSKSGIKGEGHHHHHH | not soluble
16 | MEPTGLMVAAPTASLPEAIGGERNWDYRFTWIRDTAYVIEALSSIGYKYEATEFLYDMMDMITRDNRIRTIYSIDDSNDLEERIIDYEGYRGSRPVRIGNKAVDQLQIDQYGSIVRAIHSMAKAGGIVNSYLWDFVEQVMAKIEYLWKYPDSSIWEFRTEPKQYVYSKVMSWAAFDSAISMAKDLGLSAPIKQWKSIQDEIKKEVLEKGFDTDTNSFVQYYGSKNIDAALLRLPILGFIPANDEKFLGTLSRIEKELMVDGYLFKRYREDDGLKGDEGSFLMLTFWYIEDLILMKRLKKAREVLESVLEKANHLGLYSEEIDEKSGDFLGNFPQALSHLGVIRVAPKLEEALLKRTSKINSLEHHHHHH | not soluble
17 | MSLKRADLSIVPLTFKHPIVTAHAVLSVRRTLILRLETVDGVVGYGEGAAFETPWYTEETTQSMIDTSKLILNLLKGMTVTTDVFPNLVSSIIGQRMAKAMWESALWEIEATRANKSLKSFISAGDSVSCGRTIGIGLLNQTMKSIETALADGFERIKLKASPNELLPALREIRAVFPDAPLMIDLNGSASDQPMEWFEQLDTYRLLMIEQPYPSRQFTKSAALQAKLTTPICLDESITSYDDVETMAQLGAGKIVNIKPARVGGLSEAFHIRKHGTPYWVGGMYESGIGRYHTLLFASLSGASFPADMSGTSAYFEQDLLDIPLEVENGKLTLPDSVQPDWNVIERLREEVITLQTEGHHHHHH | soluble
18 | MAESFTTTNRYFDNKHYPRGFSRHGDFTIKEAQLLERHGYAFNELDLGKREPVTEEEKLFVAVCRGEREPVTEAERVWSKYMTRIKRPKRFHTLSGGKPQVEGAEDYTDSDD | soluble
19 | MEIVYKPLDIRNEEQFASIKKLIDADLSEPYSIYVYRYFLNQWPELTYIAVDNKSGTPNIPIGCIVCKMDPHRNVRLRGYIGMLAVESTYRGHGIAKKLVEIAIDKMQREHCDEIMLETEVENSAALNLYEGMGFIRMKRMFRYYLNEGDAFKLILPLTEKSCTRSTFLMHGRLAT | not soluble
20 | MSFSLEMPQMLPAPRDCYAVPGKPGHSEPLTVVGWEHMDLKLFYPSALFSSWSIRTALYPLAVLRSQLQLQKQNTVYRSTFHAYSDISKREGFRGLYRGFWITVPQIGCSFIYSTIFEKCRAVLHEQGIQSVGGVAAVAGGLASFATQSIFVPTDIIAQYMMIYKNTDKLTAGHDKSVIDGVRNHVKNGSGLGTSVIKAIYKTDGILGFYRGFWASTAVYVPQMLTFWPSYYWMLGLFNKVPYRTLHPATNRSLLFDQAVAATLGGVISTVATNPMELFRVRLQVHRGSYSKTLETMLRDEKTAVFTKGLTPRIIANSMYSGLVVVGYEIVKRLCAKEEYKHRVKW | not soluble
